Source: FireProtDB (doi:10.1073/pnas.96.20.11283)
Values joined by “and” are separate entries in the source; they are usually repeats but may differ in a detail not shown here. Identical values can stand only once.

Conditions: Homo sapiens, pH 4.2, 20 °C, Urea, CD, sodium acetate 2 mM, whole UniProt chain shown

B1: Alpha-lactalbumin wild type, P00709 (protein)
chain: MRFFVPLFLVGILFPAILAKQFTKCELSQLLKDIDGYGGIALPELICTMFHTSGYDTQAIVENNESTEYGLFQISNKLWCKSSQVPQSRNICDISCDKFLDDDITDDIMCAKKILDIKGIDYWLAHKALCTEKLEQWLCEKL
denaturant m value (Na2SO4 20 mM): 0.88 kcal/mol/M and 0.67 kcal/mol/M | denaturant midpoint (higher = more stable) (Na2SO4 20 mM): 4.34 M and 5.85 M | denaturant m value (NaCl 30 mM): 0.58 kcal/mol/M | denaturant midpoint (higher = more stable) (NaCl 30 mM): 5.43 M | denaturant midpoint (higher = more stable) (NaClO4 50 mM): 4.62 M and 6.06 M
